Results reported in patent US12491255 (ARO BIOTHERAPEUTICS, dated 2025).

T1: human EpCAM on COLO-205 cells (human, UniProt P16422 24-314)
T1 construct: whole, on cells; Endogenous EpCAM of the EpCAM-positive cell line COLO-205; also called epithelial cell adhesion molecule; Colo205 (EpCAM+)
T1 sequence (looked up): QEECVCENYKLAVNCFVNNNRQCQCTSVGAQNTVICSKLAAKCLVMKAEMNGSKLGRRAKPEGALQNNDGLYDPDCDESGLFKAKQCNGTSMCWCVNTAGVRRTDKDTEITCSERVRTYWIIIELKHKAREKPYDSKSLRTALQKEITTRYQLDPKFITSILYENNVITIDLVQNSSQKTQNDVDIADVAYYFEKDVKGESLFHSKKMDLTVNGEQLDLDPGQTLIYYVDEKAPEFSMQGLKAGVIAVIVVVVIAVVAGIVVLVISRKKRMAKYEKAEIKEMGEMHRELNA

B1: EpCAM binding FN3 domain clone 639 (designed binder)
chain: MLPAPKNLVVSRVTEDSARLSWTAPDAAFDSFSISYRERSAWGEAIALVVPGSERSYDLTGLKPGIEYIVGIIGVKGGLRSNPLRADFTT
notes: not shown: No entry is named H9
B2: EpCAM binding FN3 domain clone 1420 (designed binder)
chain: MLPAPKNLVVSRVTEDSARLSWEGYRNNAHFDSFLIQYQESEKVGEAIVLTVPGSERSYDLTGLKPGTEYTVSIYGVVAAVPRNYYSNPLSAIFTT
notes: as for B1
B3: EpCAM binding FN3 domain clone 1874 (designed binder)
chain: MLPAPKNLVVSRVTEDSARLSWTAPDAAFDSFKIGYWEWRKYGEAIELNVPGSERSYDLTGLKPGTEYRVLIYGVKGGAGSHPLRALFTT
notes: as for B1
B4: EpCAM binding FN3 domain clone 680 (designed binder)
chain: MLPAPKNLVVSRVTEDSARLSWTAPYAAFDSFAISYRERSREGEVIALTVPGSERSYDLTGLKPGTEYIVGILGVKGGRRSKPLRAQFTT
notes: as for B1
B5: EpCAM binding FN3 domain clone 1807 (designed binder)
chain: MLPAPKNLVVSRVTEDSARLSWTAPDAAFDSFYIRYYEGSGYGEAIVLTVPGSERSYDLTGLKPGTEYYVYIGGVKGGSPSSPLSAIFTTG
notes: as for B1
B6: EpCAM FN3 domain-MMAF conjugate of clone 639 (designed binder)
chain: B1 chain
modifications: VC-MMAF (maleimide) on a cysteine; position of the cysteine not stated
B7: EpCAM FN3 domain-MMAF conjugate of clone 680 (designed binder)
chain: B4 chain
modifications: VC-MMAF (maleimide) on a cysteine; position of the cysteine not stated

molecular target: T1, human EpCAM on COLO-205 cells; assay: flow cytometry, periplasmic extract of soluble Centyrin on COLO-205 (EpCAM+) cells
Experimental: (§1) Three rounds of CIS display panning on recombinant huEpCAM protein (R&D Systems) were performed using TCL23 as described previously. The output from Round 3 was amplified and cloned into phagemid vector containing truncated pIII. An additional 4 rounds of selection on recombinant protein human EpCAM and Colo 205 (positive cells) with negative selection on A375 (negative cells) was performed. After 4 rounds of selection on recombinant protein and Colo 205 cells, 96 individual clones were assayed for binding to Colo 205 cells by phage ELISA; EpCAM negative cells (A375) were used as a negative control. Phage binding was assessed using a labeled anti-M13 antibody. Clones that were positive by phage ELISA were subcloned into a bispecific Centyrin expression plasmid where the carboxy terminal domain was an albumin binding Centyrin (H9). Soluble Centyrins were expressed, recovered from periplasmic extracts and assessed for binding to Colo205 (EpCAM+) and A375 (EpCAM-) (Table 4).

| Mean BL-1 P.E. COLO-205 | Binder |
| --- | --- |
| 10100 | B1 |
| 22600 | B2 |
| 27100 | B3 |
| 10400 | B4 |
| 12900 | B5 |

molecular target: T1, human EpCAM on COLO-205 cells; assay: cell-based or functional assay

| Binder | IC50 of EpCAM FN3 domain-MMAF conjugate molecules in COLO-205 Cells (cell viability, Cell TiterGlo, 72 hours) [nM] |
| --- | --- |
| B6 | 2.2 |
| B7 | 0.11 |

molecular target: T1, human EpCAM on COLO-205 cells; assay: flow cytometry, ratio of the signal on COLO-205 (EpCAM+) to that on A375 (EpCAM-) cells
Experimental: as §1

| COLO-205/A375 | Binder |
| --- | --- |
| 11 | B1 |
| 25.8 | B2 |
| 12.1 | B3 |
| 11.9 | B4 |
| 4.4 | B5 |
